# Measured values: paper PMC7366829 (Acta biomaterialia, 2020)
# B1: BOR1 from Arabidopsis thaliana (AtBOR1), purified in DDM, GFP-8His tag cleaved (natural protein)
# chain: not shown
# Molecular target: the molecule itself
# Assay: SEC-MALS
protein,measurement,value
B1,stoichiometry N,2
